From publication PMC11496930 (2024)
Where two headings read alike, the source gives them in different places. Blank lines part the entries; values can stand above or below the binder they belong to.

Columns and labels:
[1] = biological target: T1, ADI-19425 Fab (human, UniProt P0DOY2 1-106); experiment: BLI
[2] = biological target: T1, ADI-19425 Fab; experiment: BLI; remark: listed apart in the source

koff [1]: 0.000442 s⁻¹
B1: 2C1 recombinant IgG (human constant regions) (antibody, V domains shown)
VH: QVQLQQSGAELVRPGASVTLSCKASGYIFTDYEIHWLKQTPVHGLEWIGTSDPETGGFAYTQKFKGKAILTADKSSSTAYMELRSLTSEDSAVYYCTRRPYYGSGAWFAYWGQGTLVTVSA
VL: DIVMTQSHKFMSTSVGDRVSITCKANHDVNIAVAWYQQKPGQSPKLLIYSASYRYTGVPDRFTGSGSGTDFTFTISSVQAEDLAVYYCQQHYDTPRTFGGGTKLEIK

koff [2]: 0.000115 s⁻¹
B2: 1D3 recombinant IgG (human constant regions) (antibody, V domains shown)
VH: QVQIQQSGAELMRPGASVKLSCKATGYTFTGYWIEWVKQRPGHGLEWIGEILSGRGTTNYNEKFKGKATFTADTYSNTAYMQLSSLTTGDSAIYYCARGGFLYGDGPFDYWGQGTTLTVSS
VL: DILLTQSPAILSVSPGERVSFSCRASQNIDTHIHWYQQRTNGSPRLLIKYASESISGIPSRFSGSGSGTDFTLTINSVESEDIADYYCQQSNSWPFTFGSGTKLEIK
